Assay results published in patent US20260217791A1 (COMPLEMENT THERAPEUTICS, published 2026).

Molecular target: human C3b (human, UniProt P01024 23-667; P01024 749-1663, limits assumed)
Assay: cell-based or functional assay

Chain of human C3b (P01024 23-667 limits assumed, form in doubt, chain 1 of 2): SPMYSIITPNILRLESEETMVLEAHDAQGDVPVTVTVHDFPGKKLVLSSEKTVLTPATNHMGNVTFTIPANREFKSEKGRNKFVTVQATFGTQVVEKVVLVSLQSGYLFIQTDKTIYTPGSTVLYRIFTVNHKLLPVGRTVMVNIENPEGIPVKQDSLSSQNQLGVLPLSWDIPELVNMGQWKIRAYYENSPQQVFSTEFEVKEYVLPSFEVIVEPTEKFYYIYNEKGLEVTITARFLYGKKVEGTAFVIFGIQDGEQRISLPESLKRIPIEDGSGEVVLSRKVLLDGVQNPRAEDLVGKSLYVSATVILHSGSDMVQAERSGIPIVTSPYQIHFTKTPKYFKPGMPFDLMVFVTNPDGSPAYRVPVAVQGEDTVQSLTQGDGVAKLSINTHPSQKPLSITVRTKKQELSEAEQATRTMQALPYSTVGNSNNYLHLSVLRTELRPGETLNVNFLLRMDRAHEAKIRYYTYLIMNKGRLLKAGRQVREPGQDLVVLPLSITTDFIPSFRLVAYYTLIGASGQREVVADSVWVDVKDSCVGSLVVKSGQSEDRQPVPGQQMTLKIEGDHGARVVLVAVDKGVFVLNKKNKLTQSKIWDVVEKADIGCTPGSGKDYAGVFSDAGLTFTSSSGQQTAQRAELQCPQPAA
Chain of human C3b (P01024 749-1663 limits assumed, form in doubt, chain 2 of 2): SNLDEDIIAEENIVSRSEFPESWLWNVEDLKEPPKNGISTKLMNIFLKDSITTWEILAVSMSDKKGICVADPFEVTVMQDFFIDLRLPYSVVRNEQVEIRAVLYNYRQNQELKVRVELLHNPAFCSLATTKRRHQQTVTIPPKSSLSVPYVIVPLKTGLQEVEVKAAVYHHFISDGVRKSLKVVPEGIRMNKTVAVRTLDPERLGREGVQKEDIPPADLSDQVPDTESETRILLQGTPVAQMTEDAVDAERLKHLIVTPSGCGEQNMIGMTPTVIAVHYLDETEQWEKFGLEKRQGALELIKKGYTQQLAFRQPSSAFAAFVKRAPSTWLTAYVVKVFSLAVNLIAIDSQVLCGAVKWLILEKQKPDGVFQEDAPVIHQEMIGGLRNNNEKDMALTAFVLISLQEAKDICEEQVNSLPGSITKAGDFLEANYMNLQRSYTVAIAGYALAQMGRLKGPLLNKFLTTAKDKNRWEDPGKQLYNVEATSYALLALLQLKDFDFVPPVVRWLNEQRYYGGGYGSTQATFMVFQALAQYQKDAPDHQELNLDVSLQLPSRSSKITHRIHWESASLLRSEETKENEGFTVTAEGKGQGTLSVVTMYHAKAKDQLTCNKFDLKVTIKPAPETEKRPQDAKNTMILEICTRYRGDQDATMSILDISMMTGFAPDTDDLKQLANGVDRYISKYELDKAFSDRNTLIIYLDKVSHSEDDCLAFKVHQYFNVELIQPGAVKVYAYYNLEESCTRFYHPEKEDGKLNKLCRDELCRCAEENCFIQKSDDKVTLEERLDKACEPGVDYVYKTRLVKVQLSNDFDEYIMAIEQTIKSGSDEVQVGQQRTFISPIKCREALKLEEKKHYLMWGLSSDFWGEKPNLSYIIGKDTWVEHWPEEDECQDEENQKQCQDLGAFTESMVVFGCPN

IC50 of inhibition of MAC formation in zymosan activated human serum (Wieslab Complement system Screen kit ELISA, FIG. 9): 125 nM
B1: small polypeptide comprising CCPs 8-10 of CR1 (SEQ ID NO:3) (receptor)
chain: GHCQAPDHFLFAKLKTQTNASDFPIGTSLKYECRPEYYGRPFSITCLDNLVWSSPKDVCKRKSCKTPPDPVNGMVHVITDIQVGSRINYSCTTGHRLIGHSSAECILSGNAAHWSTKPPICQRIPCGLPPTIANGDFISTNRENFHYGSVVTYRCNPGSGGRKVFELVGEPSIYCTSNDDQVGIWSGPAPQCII
